# Experimental data as given in article PMC9237108, “The Vibrio vulnificus stressosome is an oxygen-sensor involved in regulating iron metabolism” (Communications Biology, 2022).
# B1: VvRsbS, recombinant, untagged, co-expressed with VvRsbR (natural protein, Vibrio vulnificus CMCP6, UniProt A0A3Q0KX63 1-117, looked up)
# chain: MTMQSAISISKLQDVLIASVQVDLTESTLRDFSLDLLDAVKSTRAKGVMIELSGVKTLDGESMHRLLDVVKTVEVMGRRCLLVGLRPGVVIGLMDIGIDLASTLCVADLEQGFLYLE
# notes: VvRsbS of Vibrio vulnificus CMCP6, locus VV2_0074; STAS domain made up of 115 residues; also called VvRsbS2 (dimer)
# B2: VvRsbR, recombinant, untagged, co-expressed with VvRsbS (natural protein, Vibrio vulnificus CMCP6, UniProt A0A3Q0KX46 1-306, looked up)
# chain: MSLGSVLNKVEDADELLKLHDLTEADLALIRKFGQIMVPKLDEYVKHFYDWLRNTPEYEQYFGDAQKLQRVQDSQVRYWKTFFDARIDSAYLKERRDVGEIHARVGLPLPTYFAGMNISMVIFTKRMYDGSLYSDEYSSLVTAFTKLLHLDTTIVVDTYSRLINKRISEQSEALLAMSTPVTMIWQDILMLPIVGIIDSKRAQDIMSAVLNKISENRAKIFIMDISGVAVVDTAVANHFIKITKATKLMGCDCLVSGVSPSIARTMVQLGINVGEVRTNATLRDALENAFKIVGLTVSGLKHFPHE
# notes: VvRsbR of Vibrio vulnificus CMCP6, locus VV2_0073; full-length gene amplified from genomic DNA, expressed untagged from pJPF012; Carries a heme in its N-terminal globin coupled sensor domain; In PDB 7O01 the linker helix was modelled as poly-alanine; also called VvRsbR2 (dimer)
# What was measured:
# [1] = target: the molecule itself; test: cryo-EM structure; purified, oxidized VvRsbR:VvRsbS complex (co-expressed in E. coli) at 0.3 mg/mL; single particle reconstructions in C1 and D2; homology models fitted into the map
# [2] = target: B1; test: quantification of fluorescently stained SDS-PAGE bands of the purified complex; purified VvRsbR:VvRsbS complex separated by SDS PAGE, stained with Krypton, Typhoon scanner, bands quantified with ImageQuant; settings: both partners purified
binder,measurement,setting,value
B1,stoichiometry N,[1],2
B2,stoichiometry N,[1],2
same,stoichiometry N,[2],2.4 VvRsbR:VvRsbS
